Experimental data from patent US6887705B1, “Tyrosine phosphorylated cleavage furrow-associated proteins (PSTPIPs)” (Genentech, Inc., priority 1997, dated 2005).
Entries after “also recorded” stand apart in the source; their conditions may differ.

B1: GST-PSTPIP (GST fusion of full-length PSTPIP, amino acids 2-415) (other)
chain: MAQLQFRDAFWCRDFTAHTGYEVLLQRLLDGRKMCKDVEELLRQRAQAEERYGKELVQIARKAGGQTEMNSLRTSFDSLKQQTENVGSAHIQLALALREELRSLEEFRERQKEQRKKYEAIMDRVQKSKLSLYKKTMESKKAYDQKCRDADDAEQAFERVSANGHQKQVEKSQNKAKQCKESATEAERVYRQNIEQLERARTEWEQEHRTTCEAFQLQEFDRLTILRNALWVHCNQLSMQCVKDDELYEEVRLTLEGCDVEGDINGFIQSKSTGREPPAPVPYQNYYDREVTPLIGSPSIQPSCGVIKRFSGLLHGSPKTTPSAPAASTETLTPTPERNELVYASIEVQATQGNLNSSAQDYRALYDYTAQNSDELDISAGDILAVILEGEDGWWTVERNGQRGFVPGSYLEKL
notes: Made in DH5-alpha bacteria from pGEX4T-2; also called GST-full-length PSTPIP; GST PTP PIP; not shown: glutathione S-transferase encoded by pGEX-4T-2 (Pharmacia)
B2: PSTPIP: murine PST Phosphatase Interacting Protein, 415 residues (SEQ ID NO:1) (protein)
chain: MMAQLQFRDAFWCRDFTAHTGYEVLLQRLLDGRKMCKDVEELLRQRAQAEERYGKELVQIARKAGGQTEMNSLRTSFDSLKQQTENVGSAHIQLALALREELRSLEEFRERQKEQRKKYEAIMDRVQKSKLSLYKKTMESKKAYDQKCRDADDAEQAFERVSANGHQKQVEKSQNKAKQCKESATEAERVYRQNIEQLERARTEWEQEHRTTCEAFQLQEFDRLTILRNALWVHCNQLSMQCVKDDELYEEVRLTLEGCDVEGDINGFIQSKSTGREPPAPVPYQNYYDREVTPLIGSPSIQPSCGVIKRFSGLLHGSPKTTPSAPAASTETLTPTPERNELVYASIEVQATQGNLNSSAQDYRALYDYTAQNSDELDISAGDILAVILEGEDGWWTVERNGQRGFVPGSYLEKL
modifications: Mus Musculus
B3: W232A mutant of PST PIP, C-terminal FLAG (other)
chain: MMAQLQFRDAFWCRDFTAHTGYEVLLQRLLDGRKMCKDVEELLRQRAQAEERYGKELVQIARKAGGQTEMNSLRTSFDSLKQQTENVGSAHIQLALALREELRSLEEFRERQKEQRKKYEAIMDRVQKSKLSLYKKTMESKKAYDQKCRDADDAEQAFERVSANGHQKQVEKSQNKAKQCKESATEAERVYRQNIEQLERARTEWEQEHRTTCEAFQLQEFDRLTILRNALAVHCNQLSMQCVKDDELYEEVRLTLEGCDVEGDINGFIQSKSTGREPPAPVPYQNYYDREVTPLIGSPSIQPSCGVIKRFSGLLHGSPKTTPSAPAASTETLTPTPERNELVYASIEVQATQGNLNSSAQDYRALYDYTAQNSDELDISAGDILAVILEGEDGWWTVERNGQRGFVPGSYLEKLDYKDDDDK
notes: In vitro translated or expressed in COS cells; also called W232A PST PIP; PST PIP with an alanine replacement mutation at tryptophan232

Target: T1, PTP HSCF (Mus musculus, UniProt Q61152)
T1 construct: the PST (and C-terminal homolog) of PTP HSCF (amino acids 304-453); made in house; host or cells: E. coli DH5-alpha
T1 sequence (Q61152 304-453): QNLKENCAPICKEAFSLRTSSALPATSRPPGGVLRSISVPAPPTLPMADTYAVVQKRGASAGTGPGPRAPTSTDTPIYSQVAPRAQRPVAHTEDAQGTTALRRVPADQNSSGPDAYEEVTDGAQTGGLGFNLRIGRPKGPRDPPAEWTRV
Assay: In vitro GST pull-down binding of PST PIP forms to PTP HSCF
Procedure: The binding was carried out according to the method of Wong and Johnson (Wong et al., J. Biol. Chem. 271(35):20981-20984 (1996)). Briefly, 1 μg of plasmid with either the PSTPIP protein or PTP HSCF under the control of the Sp6 promoter was in vitro transcribed/translated using the Promega™ TnT Rabbit Reticulocyte™ system. Samples were diluted in 50 mM HEPES, pH 7.2, 1% triton X 100, 10% glycerol, 100 mM NaCl, 5 mM EDTA and 2 μg/ml each of leupeptin, pepstatin, aprotinin, and PMSF. […] This was reacted for 1 hour at 4° C. and then the resin washed 6 times in HEPES/Triton binding buffer before SDS gel electrophoresis. The peptides were synthesized on an automated Milligen 9050 Peptide Synthesizer using standard solid phase chemistry with FMOC protected amino acids on a p-alkoxybenzyl alcohol resin. Dried peptides were re-suspended in the HEPES/Triton Binding buffer at a concentration of 10 mg/ml. Peptide inhibition was performed by adding the peptide first to the in vitro translation product and then the GST-fusion followed by the GSH-Sepharose. The binding/washing steps were as previously described. The peptides synthesized and the PTPs they were derived from were: • PXXP-HSCF: 432[…]451 (PTP HSCF) (SEQ ID NO:20), • PXXP-PEP: 782GFGNRFSKPKGPRNPPSAW800 (PTP PEP) (SEQ ID NO:21), • PXXP-PEST: 761[…]780 (PTP PEST) SEQ ID NO:22), • PXXP-CONTROL: 334[…]353 (PTP HSCF) (SEQ ID NO:23).
In vitro binding analyses between various PTP HSCF and PST PIP constructs were performed as previously described (Spencer et al, (1997), supra). Briefly, plasmids were transcribed and translated in vitro using the TnT Rabbit Reticulocyte Lysate System (Promega). Samples were diluted in 50 mM HEPES, pH 7.2, 1% triton X-100, 10% glycerol, 100 mM NaCl, and 2 μg/ml each of leupeptin, pepstatin, aprotinin and PMSF (lysis buffer). Samples were than reacted with GST fusion proteins at various concentrations, and the bound proteins were centrifuged using glutathione-sepharose beads and analyzed on SDS polyacrylamide gels. C-terminally-derived peptide inhibition studies were performed by incubating the GST fusion protein binding reactions in the presence of 10 μg/ml of the indicated peptides. Peptides were produced by FMOC-protected amino acids as previously described (Spencer et al, (1997), supra). In vivo interactions between various forms of PTP HSCF and PST PIP were also performed as previously described (Spencer et al, (1997), supra). Briefly, COS cells were transfected with various constructs, and after 48 hours, lysates were prepared and immunoprecipitated with antibodies to either the FLAG epitope contained at the C-terminus of PST PIP or an HA epitope contained at the N-terminus of PTP HSCF. The resultant blots were probed with anti-FLAG to detect PST PIP, anti-HA to detect PTP HSCF or anti-phosphotyrosine to detect levels of this modified amino acid in each protein.

Row | Molecule | precipitation of in vitro translated PTP HSCF by GST fusions of PSTPIP or its domains (~1 microgram per ml GST fusion protein) | binding of in vitro translated PST PIP forms to GST fusion of C-terminal 149 amino acids of PTP HSCF
1 | B1 | high degree of specificity | 
2 | B2 |  | capable of interacting
3 | B3 |  | complete loss of binding; also recorded: abolishes the interaction
